Reference: paper PMC10739154, “Reinvestigation of Disulfide-bonded Oligomeric Forms of the Unfolded Protein Response Transducer ATF6” (Cell Structure and Function, 2019)
One block for each substance: values may come before it.

Experiments:
Test in all cases: non-reducing SDS-PAGE with immunoblotting; ATF6α-TAP constructs of various lengths at the N-terminus in HCT116 DKO cells; lysates on non-reducing SDS-PAGE; blot with anti-Myc; shows disulfide-bonded forms
[1] = target: C467A mutant of ATF6α(Δ355)-TAP (human)
[2] = target: C467A mutant of ssATF6α(C)-TAP (human)
[3] = target: C618A mutant of ATF6α(Δ331)-TAP (human)
[4] = target: C618A mutant of ATF6α(Δ355)-TAP (human)
[5] = target: C618A mutant of ssATF6α(C)-TAP (human)

Substance: C467A mutant of ssATF6α(C)-TAP (domain or fragment)
stoichiometry N [2]: 2

Substance: C618A mutant of ATF6α(Δ331)-TAP (domain or fragment)
stoichiometry N [3]: 2

Substance: C618A mutant of ATF6α(Δ355)-TAP (domain or fragment)
stoichiometry N [4]: 2

Further lines, results first:

stoichiometry N [1]: 2
Substance: C467A mutant of ATF6α(Δ355)-TAP (domain or fragment)

stoichiometry N [5]: 2
Substance: C618A mutant of ssATF6α(C)-TAP (domain or fragment)
